T1: human FcRH5 protein fragment (soluble) (human, UniProt Q96RD9 16-851)
T1 construct: whole entry named; also called soluble human FcRH5; Human FcRH5 (BIACORE analyte)
T1 sequence: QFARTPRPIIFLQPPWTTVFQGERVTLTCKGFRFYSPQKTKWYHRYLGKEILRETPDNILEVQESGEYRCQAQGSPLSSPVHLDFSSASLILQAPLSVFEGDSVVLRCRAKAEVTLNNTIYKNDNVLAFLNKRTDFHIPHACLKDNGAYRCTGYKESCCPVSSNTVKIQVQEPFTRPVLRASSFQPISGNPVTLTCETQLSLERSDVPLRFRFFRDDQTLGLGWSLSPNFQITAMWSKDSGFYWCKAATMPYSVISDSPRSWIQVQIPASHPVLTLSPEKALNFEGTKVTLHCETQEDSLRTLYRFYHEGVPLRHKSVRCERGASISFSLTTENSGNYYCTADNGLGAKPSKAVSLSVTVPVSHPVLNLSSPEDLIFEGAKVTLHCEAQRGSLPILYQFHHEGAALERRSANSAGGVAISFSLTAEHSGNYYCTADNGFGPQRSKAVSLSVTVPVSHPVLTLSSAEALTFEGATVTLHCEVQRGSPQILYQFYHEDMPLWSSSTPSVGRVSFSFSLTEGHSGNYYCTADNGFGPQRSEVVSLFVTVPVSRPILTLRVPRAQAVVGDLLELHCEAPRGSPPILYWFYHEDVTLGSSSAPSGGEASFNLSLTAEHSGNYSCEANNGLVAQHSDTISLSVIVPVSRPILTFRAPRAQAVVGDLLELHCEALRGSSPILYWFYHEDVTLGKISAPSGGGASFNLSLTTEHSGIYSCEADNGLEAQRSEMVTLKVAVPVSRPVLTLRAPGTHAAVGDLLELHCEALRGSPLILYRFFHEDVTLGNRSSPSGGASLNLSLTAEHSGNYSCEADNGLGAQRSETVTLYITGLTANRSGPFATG


Tests used:
[1] = target: T1, human FcRH5 protein fragment (soluble); test: SPR, hIgG capture, screening
Method: (§1) Briefly, a human IgG capture surface was generated on a Series S CM5 chip using amine coupling and the human IgG capture kit (GE Life Sciences, Piscataway, NJ). Test antibodies were then captured on flow cells 2, 3, or 4, with flow cell 1 used as a reference. An FcRH5 protein fragment was used as the analyte, with a flow rate of […]. Between injections the capture surface was regenerated by a 30-second injection of 3M magnesium chloride or 10 mM glycine, pH 1.5. Interactions were assessed at 25° C. in 10 mM HEPES pH7.4, 150 mM NaCl, and 0.05% Tween 20 (HBSP). Reference data from the reference flow cell and from injection of buffer alone were subtracted prior to kinetic analysis. Kinetic information was calculated by fitting data to a 1:1 binding model. Reference subtraction and data fitting were performed using BIAevaluation software (GE Life Sciences, Piscataway, NJ).
(§2) For affinity screening of HVR-H2 Trp52 and Met64 variants (Table 7), antibodies were expressed by transient transfection of Expi293 cells and purified using tip columns that were custom packed with affinity resin MabSelect SuRe (Glygen Corp., Columbia, MD & GE Life Sciences, Piscataway, NJ). […] Binding of FcRH5 protein fragment to captured antibodies was monitored at 100 nM and 500 nM. Association and dissociation were monitored at a flow rate of 40 μl/min, for 180 s and 300 s, respectively.

[2] = target: T1, human FcRH5 protein fragment (soluble); test: SPR (BIACORE), IgG captured via anti-human IgG, FcRH5 protein fragment as analyte (100 and 500 nM)
Method: as §1, §2

| Kd [1] | Kd [2] | Binder |
| --- | --- | --- |
| 26 nM | 25.9 nM | hu1G7.v1 heavy chain M64F with light chain of hu1G7.v1 (antibody, V domains shown, human IgG) VH: EVQLVESGPGLVKPSETLSLTCTVSGFSLTRFGVHWVRQPPGKGLEWLGVIWRGGSTDYNAAFFSRLTISKDNSKNQVSLKLSSVTAADTAVYYCSNHYYGSSDYALDNWGQGTLVTVSS VL: DIQMTQSPSSLSASVGDRVTITCKASQDVSNIVVWFQQKPGKSPKLLIYSASYRYTGVPSRFSGSGSGTDFTLTISSLQPEDFATYYCQQHYSSPYTFGQGTKVEIK |
| 2.2 nM | 2.2 nM | hu1G7.v1 heavy chain M64F with light chain of hu1G7.v1.3 (antibody, V domains shown, human IgG) VH: EVQLVESGPGLVKPSETLSLTCTVSGFSLTRFGVHWVRQPPGKGLEWLGVIWRGGSTDYNAAFFSRLTISKDNSKNQVSLKLSSVTAADTAVYYCSNHYYGSSDYALDNWGQGTLVTVSS VL: DIQMTQSPSSLSASVGDRVTITCKASQDVRNIVVWFQQKPGKAPKLLIYSGSYRYSGVPSRFSGSGSGTDFTLTISSLQPEDFATYYCQQQYSPPYTFGQGTKVEIK |
| 2.5 nM | 2.5 nM | hu1G7.v1 heavy chain M64F with light chain of hu1G7.v1.4 (antibody, V domains shown, human IgG) VH: EVQLVESGPGLVKPSETLSLTCTVSGFSLTRFGVHWVRQPPGKGLEWLGVIWRGGSTDYNAAFFSRLTISKDNSKNQVSLKLSSVTAADTAVYYCSNHYYGSSDYALDNWGQGTLVTVSS VL: DIQMTQSPSSLSASVGDRVTITCKASQDVRNLVVWFQQKPGKAPKLLIYSGSYRYSGVPSRFSGSGSGTDFTLTISSLQPEDFATYYCQQHYSPPYTFGQGTKVEIK |
| 1.4 nM | 1.4 nM | hu1G7.v1 heavy chain M64F with light chain of hu1G7.v1.5 (antibody, V domains shown, human IgG) VH: EVQLVESGPGLVKPSETLSLTCTVSGFSLTRFGVHWVRQPPGKGLEWLGVIWRGGSTDYNAAFFSRLTISKDNSKNQVSLKLSSVTAADTAVYYCSNHYYGSSDYALDNWGQGTLVTVSS VL: DIQMTQSPSSLSASVGDRVTITCKASQDVSNIVVWFQQKPGKSPKLLIYSGYYRYTGVPSRFSGSGSGTDFTLTISSLQPEDFATYYCQQQFQPPYTFGQGTKVEIK |
| 2.6 nM | 2.6 nM | hu1G7.v1 heavy chain M64F with light chain of hu1G7.v1.6 (antibody, V domains shown, human IgG) VH: EVQLVESGPGLVKPSETLSLTCTVSGFSLTRFGVHWVRQPPGKGLEWLGVIWRGGSTDYNAAFFSRLTISKDNSKNQVSLKLSSVTAADTAVYYCSNHYYGSSDYALDNWGQGTLVTVSS VL: DIQMTQSPSSLSASVGDRVTITCKASQDVSNIVVWFQQKPGKAPKLLIYSGYYRYSGVPSRFSGSGSGTDFTLTISSLQPEDFATYYCQQQYQPPYTFGQGTKVEIK |
| 2.4 nM | 2.4 nM | hu1G7.v1 heavy chain M64F with light chain of hu1G7.v1.7 (antibody, V domains shown, human IgG) VH: EVQLVESGPGLVKPSETLSLTCTVSGFSLTRFGVHWVRQPPGKGLEWLGVIWRGGSTDYNAAFFSRLTISKDNSKNQVSLKLSSVTAADTAVYYCSNHYYGSSDYALDNWGQGTLVTVSS VL: DIQMTQSPSSLSASVGDRVTITCKASQDVRNLVVWFQQKPGKAPKLLIYSGYYRYTGVPSRFSGSGSGTDFTLTISSLQPEDFATYYCQQHYQPPYTFGQGTKVEIK |
| 30 nM | 29.8 nM | hu1G7.v1 heavy chain M64I with light chain of hu1G7.v1 (antibody, V domains shown, human IgG) VH: EVQLVESGPGLVKPSETLSLTCTVSGFSLTRFGVHWVRQPPGKGLEWLGVIWRGGSTDYNAAFISRLTISKDNSKNQVSLKLSSVTAADTAVYYCSNHYYGSSDYALDNWGQGTLVTVSS VL: DIQMTQSPSSLSASVGDRVTITCKASQDVSNIVVWFQQKPGKSPKLLIYSASYRYTGVPSRFSGSGSGTDFTLTISSLQPEDFATYYCQQHYSSPYTFGQGTKVEIK |
| 2.1 nM | 2.1 nM | hu1G7.v1 heavy chain M64I with light chain of hu1G7.v1.3 (antibody, V domains shown, human IgG) VH: EVQLVESGPGLVKPSETLSLTCTVSGFSLTRFGVHWVRQPPGKGLEWLGVIWRGGSTDYNAAFISRLTISKDNSKNQVSLKLSSVTAADTAVYYCSNHYYGSSDYALDNWGQGTLVTVSS VL: DIQMTQSPSSLSASVGDRVTITCKASQDVRNIVVWFQQKPGKAPKLLIYSGSYRYSGVPSRFSGSGSGTDFTLTISSLQPEDFATYYCQQQYSPPYTFGQGTKVEIK |
| 2.5 nM | 2.5 nM | hu1G7.v1 heavy chain M64I with light chain of hu1G7.v1.4 (antibody, V domains shown, human IgG) VH: EVQLVESGPGLVKPSETLSLTCTVSGFSLTRFGVHWVRQPPGKGLEWLGVIWRGGSTDYNAAFISRLTISKDNSKNQVSLKLSSVTAADTAVYYCSNHYYGSSDYALDNWGQGTLVTVSS VL: DIQMTQSPSSLSASVGDRVTITCKASQDVRNLVVWFQQKPGKAPKLLIYSGSYRYSGVPSRFSGSGSGTDFTLTISSLQPEDFATYYCQQHYSPPYTFGQGTKVEIK |
| 2.7 nM | 2.7 nM | hu1G7.v1 heavy chain M64I with light chain of hu1G7.v1.5 (antibody, V domains shown, human IgG) VH: EVQLVESGPGLVKPSETLSLTCTVSGFSLTRFGVHWVRQPPGKGLEWLGVIWRGGSTDYNAAFISRLTISKDNSKNQVSLKLSSVTAADTAVYYCSNHYYGSSDYALDNWGQGTLVTVSS VL: DIQMTQSPSSLSASVGDRVTITCKASQDVSNIVVWFQQKPGKSPKLLIYSGYYRYTGVPSRFSGSGSGTDFTLTISSLQPEDFATYYCQQQFQPPYTFGQGTKVEIK |
| 2.7 nM | 2.7 nM | hu1G7.v1 heavy chain M64I with light chain of hu1G7.v1.6 (antibody, V domains shown, human IgG) VH: EVQLVESGPGLVKPSETLSLTCTVSGFSLTRFGVHWVRQPPGKGLEWLGVIWRGGSTDYNAAFISRLTISKDNSKNQVSLKLSSVTAADTAVYYCSNHYYGSSDYALDNWGQGTLVTVSS VL: DIQMTQSPSSLSASVGDRVTITCKASQDVSNIVVWFQQKPGKAPKLLIYSGYYRYSGVPSRFSGSGSGTDFTLTISSLQPEDFATYYCQQQYQPPYTFGQGTKVEIK |
| 2.6 nM | 2.6 nM | hu1G7.v1 heavy chain M64I with light chain of hu1G7.v1.7 (antibody, V domains shown, human IgG) VH: EVQLVESGPGLVKPSETLSLTCTVSGFSLTRFGVHWVRQPPGKGLEWLGVIWRGGSTDYNAAFISRLTISKDNSKNQVSLKLSSVTAADTAVYYCSNHYYGSSDYALDNWGQGTLVTVSS VL: DIQMTQSPSSLSASVGDRVTITCKASQDVRNLVVWFQQKPGKAPKLLIYSGYYRYTGVPSRFSGSGSGTDFTLTISSLQPEDFATYYCQQHYQPPYTFGQGTKVEIK |
| 27 nM | 26.5 nM | hu1G7.v1 heavy chain M64L with light chain of hu1G7.v1 (antibody, V domains shown, human IgG) VH: EVQLVESGPGLVKPSETLSLTCTVSGFSLTRFGVHWVRQPPGKGLEWLGVIWRGGSTDYNAAFLSRLTISKDNSKNQVSLKLSSVTAADTAVYYCSNHYYGSSDYALDNWGQGTLVTVSS VL: DIQMTQSPSSLSASVGDRVTITCKASQDVSNIVVWFQQKPGKSPKLLIYSASYRYTGVPSRFSGSGSGTDFTLTISSLQPEDFATYYCQQHYSSPYTFGQGTKVEIK |
| 2.4 nM | 2.4 nM | hu1G7.v1 heavy chain M64L with light chain of hu1G7.v1.3 (antibody, V domains shown, human IgG) VH: EVQLVESGPGLVKPSETLSLTCTVSGFSLTRFGVHWVRQPPGKGLEWLGVIWRGGSTDYNAAFLSRLTISKDNSKNQVSLKLSSVTAADTAVYYCSNHYYGSSDYALDNWGQGTLVTVSS VL: DIQMTQSPSSLSASVGDRVTITCKASQDVRNIVVWFQQKPGKAPKLLIYSGSYRYSGVPSRFSGSGSGTDFTLTISSLQPEDFATYYCQQQYSPPYTFGQGTKVEIK |
| 2.5 nM | 2.5 nM | hu1G7.v1 heavy chain M64L with light chain of hu1G7.v1.4 (antibody, V domains shown, human IgG) VH: EVQLVESGPGLVKPSETLSLTCTVSGFSLTRFGVHWVRQPPGKGLEWLGVIWRGGSTDYNAAFLSRLTISKDNSKNQVSLKLSSVTAADTAVYYCSNHYYGSSDYALDNWGQGTLVTVSS VL: DIQMTQSPSSLSASVGDRVTITCKASQDVRNLVVWFQQKPGKAPKLLIYSGSYRYSGVPSRFSGSGSGTDFTLTISSLQPEDFATYYCQQHYSPPYTFGQGTKVEIK |
| 2.3 nM | 2.3 nM | hu1G7.v1 heavy chain M64L with light chain of hu1G7.v1.5 (antibody, V domains shown, human IgG) VH: EVQLVESGPGLVKPSETLSLTCTVSGFSLTRFGVHWVRQPPGKGLEWLGVIWRGGSTDYNAAFLSRLTISKDNSKNQVSLKLSSVTAADTAVYYCSNHYYGSSDYALDNWGQGTLVTVSS VL: DIQMTQSPSSLSASVGDRVTITCKASQDVSNIVVWFQQKPGKSPKLLIYSGYYRYTGVPSRFSGSGSGTDFTLTISSLQPEDFATYYCQQQFQPPYTFGQGTKVEIK |

— patent US20240383984A1 (Genentech, published 2024)
